Data taken from publication PMC7373317, “Structural basis of human full-length kindlin-3 homotrimer in an auto-inhibited state” (PLoS Biology, 2020).

T1: human full-length kindlin-2, from Sf9 insect cells (monomer) (human), Q96AC1
T1 chain: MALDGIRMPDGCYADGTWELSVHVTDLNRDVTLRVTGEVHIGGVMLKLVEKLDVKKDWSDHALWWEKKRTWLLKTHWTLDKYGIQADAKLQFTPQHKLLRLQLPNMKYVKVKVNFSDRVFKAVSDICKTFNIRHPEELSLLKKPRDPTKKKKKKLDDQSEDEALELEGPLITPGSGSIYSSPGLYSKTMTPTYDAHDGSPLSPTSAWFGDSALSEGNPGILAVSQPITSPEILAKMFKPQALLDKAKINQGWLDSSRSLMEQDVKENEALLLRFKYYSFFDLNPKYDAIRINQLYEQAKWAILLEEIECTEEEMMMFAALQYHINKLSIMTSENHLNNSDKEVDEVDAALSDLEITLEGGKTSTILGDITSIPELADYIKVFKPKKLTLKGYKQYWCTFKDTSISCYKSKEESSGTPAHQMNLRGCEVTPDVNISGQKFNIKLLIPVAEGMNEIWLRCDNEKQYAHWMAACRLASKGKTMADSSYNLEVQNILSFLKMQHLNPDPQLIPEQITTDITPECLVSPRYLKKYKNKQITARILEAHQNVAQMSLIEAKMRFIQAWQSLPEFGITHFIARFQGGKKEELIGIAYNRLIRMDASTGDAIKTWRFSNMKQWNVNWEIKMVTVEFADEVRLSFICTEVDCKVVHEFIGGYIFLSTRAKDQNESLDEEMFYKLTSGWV


How the values were obtained:
[1] = target: human full-length kindlin-3, wild type, from Sf9 insect cells (monomer) (human, UniProt Q86UX7 1-667); assay: ITC; MicroCal PEAQ-ITC, 25 °C, 50 mM HEPES pH 7.5, 150 mM NaCl; 500 μM ITGB1 tail injected into 50 μM monomer or trimer kindlin; details: both partners purified
[2] = target: human full-length kindlin-2, from Sf9 insect cells (monomer) (human) (UniProt Q96AC1); assay: as above
[3] = target: T1, human full-length kindlin-2, from Sf9 …; assay: SEC; analytical gel filtration, Superdex 200 Increase 10/300 GL, 20 mM Tris-HCl pH 7.5, 150 mM NaCl, calibrated with HMW kit; details: remark: other sources report otherwise
[4] = target: T1, human full-length kindlin-2, from Sf9 …; assay: SEC-MALS; Superdex 200 increase 5/150 GL, 20 mM HEPES pH 7.5, 500 mM NaCl, at least 2 mg/mL; details: remark: other sources report otherwise

Sequence of human full-length kindlin-3, wild type, from Sf9 insect cells (monomer) (Q86UX7 whole entry): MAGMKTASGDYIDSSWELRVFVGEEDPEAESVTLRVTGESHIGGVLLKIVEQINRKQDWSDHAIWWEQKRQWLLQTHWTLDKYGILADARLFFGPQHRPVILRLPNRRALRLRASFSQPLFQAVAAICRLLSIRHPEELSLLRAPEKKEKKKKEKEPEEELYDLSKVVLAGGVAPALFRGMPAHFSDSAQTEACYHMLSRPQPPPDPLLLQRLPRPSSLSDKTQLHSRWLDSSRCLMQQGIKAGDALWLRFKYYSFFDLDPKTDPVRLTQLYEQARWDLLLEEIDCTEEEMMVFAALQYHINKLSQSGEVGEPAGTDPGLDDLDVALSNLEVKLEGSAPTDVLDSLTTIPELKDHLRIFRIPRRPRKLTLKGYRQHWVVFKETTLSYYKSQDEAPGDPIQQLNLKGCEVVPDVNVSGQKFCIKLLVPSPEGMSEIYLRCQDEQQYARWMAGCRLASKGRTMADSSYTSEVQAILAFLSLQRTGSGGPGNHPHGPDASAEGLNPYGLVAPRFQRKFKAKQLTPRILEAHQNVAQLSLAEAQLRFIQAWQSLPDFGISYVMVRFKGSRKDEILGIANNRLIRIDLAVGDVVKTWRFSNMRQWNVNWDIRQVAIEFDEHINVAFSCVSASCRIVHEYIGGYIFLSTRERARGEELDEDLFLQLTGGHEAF

Row | Kd [1] [µM] | Kd [2] [µM] | stoichiometry N [3] | stoichiometry N [4] | Binder
1 | ~200 | 13.4 | – | – | AKWDTGENPIYKSAVTTVVNPKYEGK (domain or fragment, UniProt P05556-1 773-798, looked up, integrin beta-1, human, cytoplasmic tail residues 773-798; pNH-TrxT, N-terminal cleavable 6xHis thioredoxin tag; no cleavage step is described and the ITC control was the His-Trx tag alone, so the tag was probably kept (surmise); also called ITGB1 tail; integrin β1 tail) [human integrin β1 cytoplasmic tail (ITGB1 residues 773–798)]
2 | – | – | 3 | 3 | human full-length kindlin-2, from Sf9 insect cells (monomer), Q96AC1 1-680 (natural protein) MALDGIRMPDGCYADGTWELSVHVTDLNRDVTLRVTGEVHIGGVMLKLVEKLDVKKDWSDHALWWEKKRTWLLKTHWTLDKYGIQADAKLQFTPQHKLLRLQLPNMKYVKVKVNFSDRVFKAVSDICKTFNIRHPEELSLLKKPRDPTKKKKKKLDDQSEDEALELEGPLITPGSGSIYSSPGLYSKTMTPTYDAHDGSPLSPTSAWFGDSALSEGNPGILAVSQPITSPEILAKMFKPQALLDKAKINQGWLDSSRSLMEQDVKENEALLLRFKYYSFFDLNPKYDAIRINQLYEQAKWAILLEEIECTEEEMMMFAALQYHINKLSIMTSENHLNNSDKEVDEVDAALSDLEITLEGGKTSTILGDITSIPELADYIKVFKPKKLTLKGYKQYWCTFKDTSISCYKSKEESSGTPAHQMNLRGCEVTPDVNISGQKFNIKLLIPVAEGMNEIWLRCDNEKQYAHWMAACRLASKGKTMADSSYNLEVQNILSFLKMQHLNPDPQLIPEQITTDITPECLVSPRYLKKYKNKQITARILEAHQNVAQMSLIEAKMRFIQAWQSLPEFGITHFIARFQGGKKEELIGIAYNRLIRMDASTGDAIKTWRFSNMKQWNVNWEIKMVTVEFADEVRLSFICTEVDCKVVHEFIGGYIFLSTRAKDQNESLDEEMFYKLTSGWV
